Data reported in patent publication US20250276073A1 (Bicycle, published 2025).
Starred links: 1 amine or outer side, 2 acyl side, 3 side chain; linkers in the order of their positions; H or OH if unused. Positions of bridges follow the written chain, without caps; N, C: chain ends. Non-standard residues stand in square brackets, D forms with d. TATB = O=C(C[*:1])N1CN(C(=O)C[*:2])CN(C(=O)C[*:3])C1; Phe(4-CONH2) = NC(=O)c1ccc(C[C@H](N)C(=O)O)cc1; Phe(4-COOH) = N[C@@H](Cc1ccc(C(=O)O)cc1)C(=O)O; Hyp = O=C(O)[C@@H]1C[C@@H](O)CN1; Tle = CC(C)(C)[C@H](N)C(=O)O

B1: BCY23230 (peptide)
peptide: CPXDAYLGCXSYCDPW
modifications: CP[HyP]DAYLGC[tBuGly]SYCDPW: HyP at 3, tBuGly at 10; N-terminal acetyl; C-terminal CONH2; Cys 1, 9, 13 bonded to TATB scaffold
notes: Bicyclic peptide
B2: BCY23219 (peptide)
peptide: Ac-CP[Hyp]DAYTGC[Tle]SYCEPW-NH2
modifications: linker 1-9-13 via TATB
SMILES: CC(=O)N[C@H]1CSCC(=O)N2CN3CN(C2)C(=O)CSC[C@@H](C(=O)N[C@@H](CCC(=O)O)C(=O)N2CCC[C@H]2C(=O)N[C@@H](Cc2c[nH]c4ccccc24)C(N)=O)NC(=O)[C@H](Cc2ccc(O)cc2)NC(=O)[C@H](CO)NC(=O)[C@H](C(C)(C)C)NC(=O)[C@H](CSCC3=O)NC(=O)CNC(=O)[C@H]([C@@H](C)O)NC(=O)[C@H](Cc2ccc(O)cc2)NC(=O)[C@H](C)NC(=O)[C@H](CC(=O)O)NC(=O)[C@@H]2C[C@@H](O)CN2C(=O)[C@@H]2CCCN2C1=O
notes: Bicyclic peptide
B3: BCY23211 (peptide)
peptide: CPXDAYLGCXSYCEPX
modifications: CP[HyP]DAYLGC[tBuGly]SYCEP[hTyr]: HyP at 3, tBuGly at 10, hTyr at 16; N-terminal acetyl; C-terminal CONH2; Cys 1, 9, 13 bonded to TATB scaffold
notes: Bicyclic peptide
B4: BCY23187 (peptide)
peptide: Ac-CP[Hyp]DA[Phe(4-COOH)]LGC[Tle]SYCEPW-NH2
modifications: linker 1-9-13 via TATB
SMILES: CC(=O)N[C@H]1CSCC(=O)N2CN3CN(C2)C(=O)CSC[C@@H](C(=O)N[C@@H](CCC(=O)O)C(=O)N2CCC[C@H]2C(=O)N[C@@H](Cc2c[nH]c4ccccc24)C(N)=O)NC(=O)[C@H](Cc2ccc(O)cc2)NC(=O)[C@H](CO)NC(=O)[C@H](C(C)(C)C)NC(=O)[C@H](CSCC3=O)NC(=O)CNC(=O)[C@H](CC(C)C)NC(=O)[C@H](Cc2ccc(C(=O)O)cc2)NC(=O)[C@H](C)NC(=O)[C@H](CC(=O)O)NC(=O)[C@@H]2C[C@@H](O)CN2C(=O)[C@@H]2CCCN2C1=O
notes: Bicyclic peptide
B5: BCY23180 (peptide)
peptide: CXXDAYLGCXSYCEPW
modifications: not fully specified; C[HyP][HyP]DAYLGC[tBuGly]SYCEPW: HyP at 2 and 3, tBuGly at 10; N-terminal acetyl; C-terminal CONH2; Cys 1, 9, 13 bonded to TATB scaffold
notes: Bicyclic peptide
B6: BCY23185 (peptide)
peptide: CPXDAXLGCXSYCEPW
modifications: CP[HyP]DA[DOPA]LGC[tBuGly]SYCEPW: HyP at 3, DOPA at 6, tBuGly at 10; N-terminal acetyl; C-terminal CONH2; Cys 1, 9, 13 bonded to TATB scaffold
notes: Bicyclic peptide
B7: BCY23202 (peptide)
peptide: CPXDAYLGCXSXCEPW
modifications: CP[HyP]DAYLGC[tBuGly]S[pCoPhe]CEPW: HyP at 3, tBuGly at 10, pCoPhe at 12; N-terminal acetyl; C-terminal CONH2; Cys 1, 9, 13 bonded to TATB scaffold
notes: Bicyclic peptide
B8: BCY23200 (peptide)
peptide: CPXDAYLGCXSXCEPW
modifications: CP[HyP]DAYLGC[tBuGly]S[DOPA]CEPW: HyP at 3, tBuGly at 10, DOPA at 12; N-terminal acetyl; C-terminal CONH2; Cys 1, 9, 13 bonded to TATB scaffold
notes: Bicyclic peptide
B9: BCY23224 (peptide)
peptide: CPXDAYLGCXXYCEPW
modifications: CP[HyP]DAYLGC[tBuGly][HSer]YCEPW: HyP at 3, tBuGly at 10, HSer at 11; N-terminal acetyl; C-terminal CONH2; Cys 1, 9, 13 bonded to TATB scaffold
notes: Bicyclic peptide
B10: BCY23186 (peptide)
peptide: Ac-CP[Hyp]DA[Phe(4-CONH2)]LGC[Tle]SYCEPW-NH2
modifications: linker 1-9-13 via TATB
SMILES: CC(=O)N[C@H]1CSCC(=O)N2CN3CN(C2)C(=O)CSC[C@@H](C(=O)N[C@@H](CCC(=O)O)C(=O)N2CCC[C@H]2C(=O)N[C@@H](Cc2c[nH]c4ccccc24)C(N)=O)NC(=O)[C@H](Cc2ccc(O)cc2)NC(=O)[C@H](CO)NC(=O)[C@H](C(C)(C)C)NC(=O)[C@H](CSCC3=O)NC(=O)CNC(=O)[C@H](CC(C)C)NC(=O)[C@H](Cc2ccc(C(N)=O)cc2)NC(=O)[C@H](C)NC(=O)[C@H](CC(=O)O)NC(=O)[C@@H]2C[C@@H](O)CN2C(=O)[C@@H]2CCCN2C1=O
notes: Bicyclic peptide
B11: BCY23208 (peptide)
peptide: CPXDAYLGCXSYCEPX
modifications: CP[HyP]DAYLGC[tBuGly]SYCEP[DOPA]: HyP at 3, tBuGly at 10, DOPA at 16; N-terminal acetyl; C-terminal CONH2; Cys 1, 9, 13 bonded to TATB scaffold
notes: Bicyclic peptide
B12: BCY23182 (peptide)
peptide: CXXDAYLGCXSYCEPW
modifications: C[Cis-HyP][HyP]DAYLGC[tBuGly]SYCEPW: Cis-HyP at 2, HyP at 3, tBuGly at 10; N-terminal acetyl; C-terminal CONH2; Cys 1, 9, 13 bonded to TATB scaffold
notes: Bicyclic peptide
B13: BCY23209 (peptide)
peptide: CPXDAYLGCXSYCEPX
modifications: CP[HyP]DAYLGC[tBuGly]SYCEP[pCaPhe]: HyP at 3, tBuGly at 10, pCaPhe at 16; N-terminal acetyl; C-terminal CONH2; Cys 1, 9, 13 bonded to TATB scaffold
notes: Bicyclic peptide
B14: BCY23203 (peptide)
peptide: CPXDAYLGCXSXCEPW
modifications: CP[HyP]DAYLGC[tBuGly]S[hTyr]CEPW: HyP at 3, tBuGly at 10, hTyr at 12; N-terminal acetyl; C-terminal CONH2; Cys 1, 9, 13 bonded to TATB scaffold
notes: Bicyclic peptide
B15: BCY23204 (peptide)
peptide: CPXDAYLGCXSYCEXW
modifications: CP[HyP]DAYLGC[tBuGly]SYCE[HyP]W: HyP at 3 and 15, tBuGly at 10; N-terminal acetyl; C-terminal CONH2; Cys 1, 9, 13 bonded to TATB scaffold
notes: Bicyclic peptide

What follows are binders tested against T1, Recombinant human His-tagged TfR1 (a.a. 89-760) (ACRO Biosystems, CD1-H5243) (human, UniProt P02786 89-760) (assay: SPR (Biacore), TfR1 captured/coupled on NTA chip, peptide as analyte).
T1 construct: range 89-760; Bought protein; Captured and amine-coupled on an NTA chip; also called human TfR1; transferrin receptor 1; not shown: His tag (printed 'Hiss-tagged')
T1 sequence (P02786 89-760 limits assumed): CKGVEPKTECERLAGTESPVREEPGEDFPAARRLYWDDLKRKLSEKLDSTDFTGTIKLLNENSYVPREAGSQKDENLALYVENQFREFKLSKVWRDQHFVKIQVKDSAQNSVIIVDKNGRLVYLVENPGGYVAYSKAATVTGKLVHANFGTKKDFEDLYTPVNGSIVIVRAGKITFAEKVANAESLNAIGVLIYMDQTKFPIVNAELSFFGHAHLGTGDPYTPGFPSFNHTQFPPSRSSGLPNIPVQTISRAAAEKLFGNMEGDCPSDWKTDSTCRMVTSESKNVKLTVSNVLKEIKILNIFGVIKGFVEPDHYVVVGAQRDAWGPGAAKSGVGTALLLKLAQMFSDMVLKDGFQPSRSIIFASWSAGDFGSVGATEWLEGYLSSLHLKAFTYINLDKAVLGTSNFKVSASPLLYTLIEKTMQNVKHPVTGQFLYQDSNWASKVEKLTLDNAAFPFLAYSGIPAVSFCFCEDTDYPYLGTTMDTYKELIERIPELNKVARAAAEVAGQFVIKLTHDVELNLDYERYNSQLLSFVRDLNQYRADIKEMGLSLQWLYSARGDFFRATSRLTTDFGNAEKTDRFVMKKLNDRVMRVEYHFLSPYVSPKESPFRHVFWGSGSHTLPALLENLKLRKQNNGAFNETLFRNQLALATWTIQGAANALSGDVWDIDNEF
B1 gave a Kd of 15 nM. For B2, the Kd was 51 nM. Work on B3 yielded a Kd of 7.7 nM. Binder B4 has a Kd of 38 nM. Work on B5 yielded a Kd of 50 nM. B6 showed a Kd of 12 nM. Work on B7 yielded a Kd of 23 nM. B8 was tested, and the Kd was 9.5 nM. Binder B9 has a Kd of 1140 nM. With B10 the Kd was 27 nM. In the case of B11, the Kd is reported as 6 nM. B12 gave a Kd of 22 nM. B13 gave a Kd of 5.6 nM. In the case of B14, the Kd is reported as 283 nM. For B15, the Kd was 9 nM.
